Target: T1, hmm.hTfRC (REGN2431) (human, UniProt P02786 89-760)
T1 construct: also called hmm.hTfR(C89-F763); His-myc-myc-hTFRC ecto
Experiment: blocking ELISA; Hmm-hTFRC + supernatant on plate-bound holo-Tf

T1 sequence (P02786 other isoform, or with tags, fused parts or gaps): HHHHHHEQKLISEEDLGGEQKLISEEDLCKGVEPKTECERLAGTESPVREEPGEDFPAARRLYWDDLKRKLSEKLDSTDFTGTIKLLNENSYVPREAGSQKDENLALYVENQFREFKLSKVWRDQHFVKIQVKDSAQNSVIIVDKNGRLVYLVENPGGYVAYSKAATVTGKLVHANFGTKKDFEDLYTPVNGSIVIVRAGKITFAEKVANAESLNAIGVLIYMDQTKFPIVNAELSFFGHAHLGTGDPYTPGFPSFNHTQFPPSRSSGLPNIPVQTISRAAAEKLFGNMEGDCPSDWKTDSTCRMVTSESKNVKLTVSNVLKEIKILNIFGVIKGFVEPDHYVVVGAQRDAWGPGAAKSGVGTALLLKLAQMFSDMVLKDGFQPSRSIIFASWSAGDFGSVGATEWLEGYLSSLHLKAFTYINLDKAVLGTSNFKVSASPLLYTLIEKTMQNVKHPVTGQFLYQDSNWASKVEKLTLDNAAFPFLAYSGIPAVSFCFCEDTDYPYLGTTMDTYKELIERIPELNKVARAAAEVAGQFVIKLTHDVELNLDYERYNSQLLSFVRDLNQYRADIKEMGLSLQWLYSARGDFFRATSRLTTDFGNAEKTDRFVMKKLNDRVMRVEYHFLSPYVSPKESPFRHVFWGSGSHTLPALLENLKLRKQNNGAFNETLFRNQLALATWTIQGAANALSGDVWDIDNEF

| Binder | % Blocking [%] |
| --- | --- |
| 12799B scFv (VH-VK) (scFv) QITLKESGPTLVKPTQTLTLTCTFSGFSLSTSGVGVVWIRQPPGKALEWLALIYWNDHKRYSPSLGSRLTITKDTSKNQVVLTMTNMDPVDTATYYCAHYSGSYSYYYYGLDVWGQGTTVTVSSDIQMTQSPSSVSASVGDRVTITCRASQGIASWLAWYQQKPGKAPELLIYAASSLQGGVPSRFSGSGSGTDFTLTISSLQPEDFAIYYCQQANYFPWTFGQGTKVEIK | 26 |
| 12798B scFv (VH-VK) (scFv) EVQLVESGGDLVQPGRSLRLSCAASGFTFDDYAMHWVRQAPGKGLEWVSGISWNSATRVYADSVKGRFTISRDNAKNFLYLQMNSLRSEDTALYHCAKDMDISLGYYGLDVWGQGTTVTVSSEIVMTQSPATLSVSPGERATLSCRASQTVSSNLAWYQQKPGQAPRLLIYGSSSRATGIPARFSGSGSGTEFTLTISSLQSEDFAVYYCQQYNNWPPYTFGQGTKLEIK | 0 |
| 12802B scFv (VH-VK) (scFv) QVQLVESGGGLVKPGGSLRLSCAASGFTFSDYFMSWIRQAPGKGLEWVSYISSTGSTINYADSVKGRFTISRDNVKNSLYLQMTSLRVEDTAVYYCTRDNWNYEYWGQGTLVTVSSEIVMTQSPATLSVSPGERATLSCRASQSVSINLAWYQQKPGQAPRLLIFVASTRATGIPARFSGSGSGTEFTLTISSLQSEDFATYYCQQYDIWPYTFGQGTKLEIK | 11 |

Continued, values first:

| % Blocking [%] | Binder |
| --- | --- |
| 9 | 69307 scFv (VH-VK) (scFv) EVQLVESGGGLVQPGGSLRLSCTASGFTFSNYWMTWVRQAPGKGLEWVANIKEDGSEKEYVDSVKGRFTISRDNAKNSLYLQMNSLRGEDTAVYYCARDGEQLVDYYYYYVMDVWGQGTTVTVSSDIQMTQSPSSVSASVGDRVTITCRASQGISSWLAWYQQKPGKAPKLLIYAASSLQSGVPSRFSGSGSGTDFTLTISSLQPEDFATYYCQKADSLPYAFGQGTKLEIK |
| 19 | 12812B scFv (VH-VK) (scFv) QVQLVQSGAEVKKPGSSVRVSCKASRGTFSSYAISWVRQAPGQGLEWMGGIIPIFGTANYAQKFLARVTITADESTSTAYMELSSLRSEDTAVYYCAREKGWNYFDYWGQGTLVTVSSDIQMTQSPPSVSASVGDRVTITCRASQGISSWLAWYQQKPGKAPKLLIYAASSLQSGVPSRFSGSGSGTDFTLTISSLQPEDFATYYCQQANSFPRTFGQGTKVEIK |

Source: patent US20250041455A1 (Regeneron, published 2025)
